Biological target: the molecule itself
Experiment: intact protein mass determination (UHPLC-HRMS); reverse-phase C4 column, water/acetonitrile with 0.1% formic acid, electrospray, QTof; covalent (disulphide) dimer

B1: Noggin (residues 28-232) (natural protein)
chain: MQHYLHIRPAPSDNLPLVDLIEHPDPIFDPKEKDLNETLLRSLLGGHYDPGFMATSPPEDRPGGGGGAAGGAEDLAELDQLLRQRPSGAMPSEIKGLEFSEGLAQGKKQRLSKKLRRKLQMWLWSQTFCPVLYAWNDLGSRFWPRYVKVGSCFSKRSCSVPEGMVCKPSKSVHLTVLRWRCQRRGGQRCGWIPIQYPIISECKCSC
modifications: biotin (biotinylated Noggin in the BLI experiments); methionine oxidation, mainly on the N-terminal methionine, in part of the sample
notes: Noggin, residues 28-232 of UniProt Q13253; Disulphide-linked homodimer; No tag (pET-17(b)); for the crystal, SEC-MALS and cell assays no biotinylation is mentioned; also called antagonist Noggin; recombinant Noggin
stoichiometry N: 2

Reference: PMC9929448, “Structural analysis of the interaction between human cytokine BMP-2 and the antagonist Noggin reveals molecular details of cell chondrogenesis inhibition” (The Journal of Biological Chemistry, 2023)
